# Data as given in PMC10080726 (Molecular cell, 2023).
# No end group written: not given here.
# T1: KLHDC2 SBD (Homo sapiens, UniProt Q9Y2U9)
# T1 sequence (Q9Y2U9 15-361): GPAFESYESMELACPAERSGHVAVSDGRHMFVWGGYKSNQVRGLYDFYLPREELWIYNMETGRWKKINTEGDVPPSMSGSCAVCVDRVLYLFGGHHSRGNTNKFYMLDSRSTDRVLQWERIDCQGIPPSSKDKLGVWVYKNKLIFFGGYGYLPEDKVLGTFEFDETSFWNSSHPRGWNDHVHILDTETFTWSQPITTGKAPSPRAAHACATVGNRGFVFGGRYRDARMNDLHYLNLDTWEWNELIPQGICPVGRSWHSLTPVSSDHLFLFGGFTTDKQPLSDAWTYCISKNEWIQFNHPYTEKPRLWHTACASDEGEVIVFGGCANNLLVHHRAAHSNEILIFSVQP
# T2: 10xHis-KLHDC2 SBD (residues 15-361) (human, UniProt Q9Y2U9 15-361)
# T2 sequence (looked up): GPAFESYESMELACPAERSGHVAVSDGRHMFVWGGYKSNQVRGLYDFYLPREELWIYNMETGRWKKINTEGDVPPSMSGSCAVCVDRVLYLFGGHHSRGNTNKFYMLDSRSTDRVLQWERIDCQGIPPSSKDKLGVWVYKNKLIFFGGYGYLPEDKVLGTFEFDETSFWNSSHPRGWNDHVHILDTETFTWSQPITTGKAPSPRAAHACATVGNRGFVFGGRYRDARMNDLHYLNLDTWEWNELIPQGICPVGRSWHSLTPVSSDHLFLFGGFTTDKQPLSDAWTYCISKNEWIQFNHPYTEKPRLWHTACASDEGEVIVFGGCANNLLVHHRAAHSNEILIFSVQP
# T3: KLHDC2 substrate-binding domain (SBD), residues 15-361 (human, UniProt Q9Y2U9 15-361)
# T3 sequence (looked up): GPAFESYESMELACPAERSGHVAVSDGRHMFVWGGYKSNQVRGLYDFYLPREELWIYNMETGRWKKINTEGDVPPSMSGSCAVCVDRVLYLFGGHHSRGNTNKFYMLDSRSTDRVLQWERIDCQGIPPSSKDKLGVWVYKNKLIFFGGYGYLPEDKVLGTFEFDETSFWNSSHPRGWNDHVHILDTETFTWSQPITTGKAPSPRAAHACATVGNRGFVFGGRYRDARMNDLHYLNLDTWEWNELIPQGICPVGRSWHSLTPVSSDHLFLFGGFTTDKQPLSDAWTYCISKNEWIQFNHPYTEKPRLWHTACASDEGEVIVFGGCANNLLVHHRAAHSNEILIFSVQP
# Legend:
# KLHDC2 SBD = target: T1, KLHDC2 SBD; assay: SPR binding to immobilised KLHDC2 SBD; details: for Kd: 10xHis-KLHDC2 SBD, pH 7.4, 20°C, triplicate, 1-site model, substrates (Figure S1C)
# KLHDC2-EloBC = assay: Native gel electrophoresis, substrate; assay type: binding, human
# [1] = target: KLHDC2-EloBC substrate receptor complex (full-length WT KLHDC2, EloB, EloC) (UniProt Q9Y2U9); assay: SEC
# [2] = target: KLHDC2-EloBC substrate receptor complex (full-length WT KLHDC2, EloB, EloC) (UniProt Q9Y2U9); assay: AUC
# [3] = target: KLHDC3-EloBC complex (full-length KLHDC3, EloB, EloC) (UniProt Q9BQ90)
# [4] = target: 10xHis-KLHDC2 SBD (residues 15-361) (human) (UniProt Q9Y2U9); assay: SPR
# neddylated CRL2^KLHDC2 = assay: Pulse-chase ubiquitylation of substrates or KLHDC2; assay type: biochemical, human
# CUL2-RBX1 = CUL2-RBX1 neddylation pulse-chase; assay type: biochemical, human; details: tetramer supplied with substrate, without CAND1
# [5] = target: T2, 10xHis-KLHDC2 SBD (residues 15-361); assay: SPR
# [6] = target: T3, KLHDC2 substrate-binding domain (SBD), …; assay: crystal structure
# crystal structure = target: the molecule itself; assay: crystal structure
# CUL2 in 293T cells = assay: FLAG immunoprecipitation of KLHDC2, associated CUL2 neddylation state; assay type: cell-based, human; details: FLAG-KLHDC2, no treatment
# KLHDC2 in U2OS cells [7] = assay: K48-ubiquitylation of FLAG-KLHDC2 in U2OS cells; assay type: cell-based, human; details: Bortezomib 1 μM, five hours, K48 antibody
# NEDD8 in U2OS cells = assay: Steady-state NEDD8 levels in U2OS cells; details: ectopic expression in KLHDC2 KO U2OS
# KLHDC2 in U2OS cells [8] = assay: Steady-state KLHDC2 protein levels in U2OS cells
# [9] = system: USP1 N-fragment in U2OS cells; assay: Steady-state USP1 N-fragment levels in U2OS cells; details: exogenous rescue in KLHDC2 KO U2OS, n=3 technical replicates
# CRL2^KLHDC2 = assay: Pre-steady state rapid quench flow ubiquitylation; assay type: biochemical, human; details: KLHDC2 -KK, UBE2R2, one-hour equilibration of substrate with E3, triplicate
# KLHDC2-EloBC substrate receptor complex (full-length WT KLHDC2, EloB, EloC) (from UniProt Q9Y2U9 1-406; Q15370 1-104; Q15369 17-112), sequence (Q15370 1-104): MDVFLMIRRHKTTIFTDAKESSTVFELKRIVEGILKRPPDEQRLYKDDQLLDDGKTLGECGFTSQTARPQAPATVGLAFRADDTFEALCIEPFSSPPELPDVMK
# KLHDC2-EloBC substrate receptor complex (full-length WT KLHDC2, EloB, EloC) (from UniProt Q9Y2U9 1-406; Q15370 1-104; Q15369 17-112), sequence (Q15369 17-112): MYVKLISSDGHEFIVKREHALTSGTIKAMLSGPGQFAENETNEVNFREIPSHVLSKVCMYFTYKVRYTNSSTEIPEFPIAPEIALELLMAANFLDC
# KLHDC3-EloBC complex (full-length KLHDC3, EloB, EloC) (from UniProt Q9BQ90 1-382; Q15370 1-104; Q15369 17-112), sequence (Q9BQ90 whole entry): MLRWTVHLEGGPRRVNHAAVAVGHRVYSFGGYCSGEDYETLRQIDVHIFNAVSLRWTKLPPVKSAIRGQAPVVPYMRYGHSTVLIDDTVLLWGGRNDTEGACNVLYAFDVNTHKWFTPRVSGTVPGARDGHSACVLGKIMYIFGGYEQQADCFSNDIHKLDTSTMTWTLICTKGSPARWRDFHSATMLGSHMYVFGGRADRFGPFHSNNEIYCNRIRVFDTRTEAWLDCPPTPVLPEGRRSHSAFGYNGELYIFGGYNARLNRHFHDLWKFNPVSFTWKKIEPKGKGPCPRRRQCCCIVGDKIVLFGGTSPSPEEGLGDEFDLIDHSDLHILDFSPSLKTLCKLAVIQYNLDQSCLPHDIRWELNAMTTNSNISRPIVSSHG
# KLHDC3-EloBC complex (full-length KLHDC3, EloB, EloC) (from UniProt Q9BQ90 1-382; Q15370 1-104; Q15369 17-112), sequence (Q15370 1-104): as the sequence (Q15370 1-104) above
# KLHDC3-EloBC complex (full-length KLHDC3, EloB, EloC) (from UniProt Q9BQ90 1-382; Q15370 1-104; Q15369 17-112), sequence (Q15369 17-112): as the sequence (Q15369 17-112) above
molecule,measurement,setting,value
NQRFGSNNTSGS-OH [WT KLHDC2-derived peptide],affinity lower than physiological substrates,KLHDC2 SBD; vs peptides from physiological substrates USP1 and GFP-RIC8B,3–5 fold
CUL2-RBX1: CUL2-RBX1 complex,required pre-incubation time for KLHDC2-FAM-SELK complex formation,KLHDC2-EloBC; with CUL2-RBX1,< 3 h
"KLHDC2-EloBC substrate receptor complex (full-length WT KLHDC2, EloB, EloC) (from UniProt Q9Y2U9 1-406; Q15370 1-104; Q15369 17-112)",Kd,[1],0.18 to 0.26 nM
same,Kd,[2],0.15 nM
"KLHDC3-EloBC complex (full-length KLHDC3, EloB, EloC) (from UniProt Q9BQ90 1-382; Q15370 1-104; Q15369 17-112)",stoichiometry N,[3],4
WT KLHDC2-derived peptide (C-terminus of KLHDC2) used in SPR,Kd,[4],1400 nM
"KLHDC2-EloBC: full-length KLHDC2-EloBC substrate receptor complex, tetrameric",auto-ubiquitylation of KLHDC2,"neddylated CRL2^KLHDC2; UB~UBCH5B, WT or C-degron mutants, with or without SELK",subject to auto-ubiquitylation
same,FAM-SELK binding (in words),"KLHDC2-EloBC; native gel, 2.5 μM KLHDC2, pH 7.5",a single band appeared
same,rate of CUL2-RBX1 neddylation (in words),CUL2-RBX1,greatest
GFP-RIC8B: C-terminal 23 amino-acids of RIC8B appended to the C-terminus of GFP ({GFP}-TITPLEEALNQYSVIEETSSDTD),Kd,KLHDC2 SBD,460 nM
"USP1 fragment (residues 592-671) (domain or fragment, UniProt O94782 592-671, looked up) GHYTASVKVTDLNSLELDKGNFVVDQMCEIGKPEPLNEEEARGVVENYNDEEVSIRVGGNTQPSKVLNKKNVEAIGLLGG",Kd,[5],264 nM
"NQRFGSNNTSGS (peptide, UniProt Q9Y2U9 395-406, looked up) [12mer peptide derived from the C-terminus of KLHDC2]",binding result,[6],binds
"KLHDC2, full length (the KLHDC2 chain of the KLHDC2-EloBC crystal structure) (natural protein, human, UniProt Q9Y2U9 1-406, looked up) MADGNEDLRADDLPGPAFESYESMELACPAERSGHVAVSDGRHMFVWGGYKSNQVRGLYDFYLPREELWIYNMETGRWKKINTEGDVPPSMSGSCAVCVDRVLYLFGGHHSRGNTNKFYMLDSRSTDRVLQWERIDCQGIPPSSKDKLGVWVYKNKLIFFGGYGYLPEDKVLGTFEFDETSFWNSSHPRGWNDHVHILDTETFTWSQPITTGKAPSPRAAHACATVGNRGFVFGGRYRDARMNDLHYLNLDTWEWNELIPQGICPVGRSWHSLTPVSSDHLFLFGGFTTDKQPLSDAWTYCISKNEWIQFNHPYTEKPRLWHTACASDEGEVIVFGGCANNLLVHHRAAHSNEILIFSVQPKSLVRLSLEAVICFKEMLANSWNCLPKHLLHSVNQRFGSNNTSGS",binding result,crystal structure,binds
"WT KLHDC2: FLAG-tagged WT KLHDC2 expressed in cells; KLHDC2 in CRL2^KLHDC2 (protein, left off: FLAG, N-terminal, kept) MADGNEDLRADDLPGPAFESYESMELACPAERSGHVAVSDGRHMFVWGGYKSNQVRGLYDFYLPREELWIYNMETGRWKKINTEGDVPPSMSGSCAVCVDRVLYLFGGHHSRGNTNKFYMLDSRSTDRVLQWERIDCQGIPPSSKDKLGVWVYKNKLIFFGGYGYLPEDKVLGTFEFDETSFWNSSHPRGWNDHVHILDTETFTWSQPITTGKAPSPRAAHACATVGNRGFVFGGRYRDARMNDLHYLNLDTWEWNELIPQGICPVGRSWHSLTPVSSDHLFLFGGFTTDKQPLSDAWTYCISKNEWIQFNHPYTEKPRLWHTACASDEGEVIVFGGCANNLLVHHRAAHSNEILIFSVQPKSLVRLSLEAVICFKEMLANSWNCLPKHLLHSVNQRFGSNNTSGS",auto-ubiquitylation of KLHDC2,"neddylated CRL2^KLHDC2; no substrate, UB~UBE2R2",rapidly ubiquitylated
same,co-precipitated CUL2 neddylation state (in words),CUL2 in 293T cells,co-precipitated a mixture of unmodified and neddylated CUL2
same,ubiquitylation of KLHDC2 (in words),KLHDC2 in U2OS cells [7],more ubiquitylated than their monomeric counterparts
same,NEDD8 levels (in words),NEDD8 in U2OS cells,reduced the levels of unconjugated NEDD8
same,exogenous expression relative to endogenous KLHDC2,KLHDC2 in U2OS cells [8]; U2OS,roughly 10 -fold
same,KLHDC2 protein level (in words),KLHDC2 in U2OS cells [8]; stable FLAG-KLHDC2 in KLHDC2 KO U2OS,significantly lower than that of CΔ6 and -KK monomers
same,reduction of USP1 N-fragment levels,[9],~ 4 fold
"USP1: USP1 fragment, residues 592–671 (protein, left off: GST, N-terminal, cleaved) GHYTASVKVTDLNSLELDKGNFVVDQMCEIGKPEPLNEEEARGVVENYNDEEVSIRVGGNTQPSKVLNKKNVEAIGLLGG",Kd,KLHDC2 SBD,260 nM
same,pre-incubation required for maximal ubiquitylation (in words),neddylated CRL2^KLHDC2; KLHDC2 -KK,required no pre-incubation
same,*UB transfer to substrate (in words),"neddylated CRL2^KLHDC2; UB~UBE2R2, neddylated CRL2^KLHDC2 (WT), 0.6 μM substrate, pH 7.5, n=3",preferentially promotes *UB ligation to SELK or USP1
same,rate of substrate modification kobs,CRL2^KLHDC2,0.21 s⁻¹
"FAM-USP1: fluorescein-labeled USP1 fragment (protein, fluorescein on the amino-terminus (sortase-mediated ligation of FAM-(PEG)5-LPETGG peptide); left off: GST, N-terminal, cleaved) GHYTASVKVTDLNSLELDKGNFVVDQMCEIGKPEPLNEEEARGVVENYNDEEVSIRVGGNTQPSKVLNKKNVEAIGLLGG",complex formation with KLHDC2-EloBC (in words),"KLHDC2-EloBC; 20-fold molar excess of ligand, 4-hour pre-incubation",only minimal interaction
